pKd: −log10 of the molar value.

In this assay the target is purified human SLAMF4 (hSLAMF4) protein, recombinant (human) (UniProt Q9BZW8). In words: MST; Monolith NT.115; GST–lytC_22 in a gradient (11 to 0.34375 μg μl^-1) mixed 1:1 (vol/vol) with 0.2 μg μl^-1 fluorescently pre-labelled recombinant Slamf4, 30 min at room temperature; medium MST power; apparent.
UniProt Q9BZW8, sequence (Q9BZW8 22-229): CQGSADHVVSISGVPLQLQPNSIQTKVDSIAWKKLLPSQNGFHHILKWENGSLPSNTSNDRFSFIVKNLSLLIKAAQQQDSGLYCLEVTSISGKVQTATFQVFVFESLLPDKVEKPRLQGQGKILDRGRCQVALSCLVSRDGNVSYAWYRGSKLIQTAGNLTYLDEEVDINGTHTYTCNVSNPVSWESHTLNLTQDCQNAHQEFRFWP

As to “GST–lytC_22 (recombinant glutathione S-transferase-tagged N-acetylmuramoyl-L-alanine amidase lytC_22 of P. anaerobius) (natural protein)”, the pKd (in general, −log10 of the Kd, conventionally taken in molar units) was 7.40.

Source of the values: publication PMC11153135.
